{
  "source": "patent US20230212587A1",
  "about": "“Mutant Hydroxyphenylpyruvate Dioxygenase Polypeptide, Encoding Gene Thereof and Use Therefor” (Beijing Dabeinong Biotechnology Co., Ltd., priority 2019, published 2023)",
  "test_system": "Arabidopsis thaliana T1 plants",
  "experiment": "Topramezone tolerance of transgenic Arabidopsis thaliana T1 plants (pesticide damage grade by bleached leaf area, score, resistance evaluation)",
  "format": "in vivo",
  "conditions": "HPPDs from different species, 7 DAT; for Classification and statistics of pesticide damage grade Grade 0 / Classification and statistics of pesticide damage grade Grade 1 / Classification and statistics of pesticide damage grade Grade 2 / Classification and statistics of pesticide damage grade Grade 3: number of plants (of 16) in this grade; for Scores: score for pesticide damage 0-100",
  "outline": "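Herbicide tolerance was judged per plant on a bleaching scale (grade 0 no bleaching to grade 3 fully bleached) 7 DAT. Topramezone doses were 0, 25, 50 and 100 g ai/ha on 18-day-old T1 and wild-type plants.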",
  "data": [
    {"molecule": "AtHPPDm-F372A: Arabidopsis thaliana HPPD mutant F372A, SEQ ID NO: 25 (protein, AtHPPDm-F372A Amino Acid Sequence) MGHQNAAVSENQNHDDGAASSPGFKLVGFSKFVRKNPKSDKFKVKRFHHIEFWCGDATNVARRFSWGLGMRFSAKSDLSTGNMVHASYLLTSGDLRFLFTAPYSPSLSAGEIKPTTTASIPSFDHGSCRSFFSSHGLGVRAVAIEVEDAESAFSISVANGAIPSSPPIVLNEAVTIAEVKLYGDVVLRYVSYKAEDTEKSEFLPGFERVEDASSFPLDYGIRRLDHAVGNVPELGPALTYVAGFTGFHQFAEFTADDVGTAESGLNSAVLASNDEMVLLPINEPVHGTKRKSQIQTYLEHNEGAGLQHLALMSEDIFRTLREMRKRSSIGGFDFMPSPPPTYYQNLKKRVGDVLSDDQIKECEELGILVDRDDQGTLLQIATKPLGDRPTIFIEIIQRVGCMMKDEEGKAYQSGGCGGFGKGNFSELFKSIEEYEKTLEAKQLVG", "values": [
      {"measurement": "Classification and statistics of pesticide damage grade Grade 0", "setting": "topramezone 25 g ai/ha (1x)", "result": 4},
      {"measurement": "Classification and statistics of pesticide damage grade Grade 1", "setting": "topramezone 25 g ai/ha (1x)", "result": 4},
      {"measurement": "Classification and statistics of pesticide damage grade Grade 2", "setting": "topramezone 25 g ai/ha (1x)", "result": 8},
      {"measurement": "Classification and statistics of pesticide damage grade Grade 3", "setting": "topramezone 25 g ai/ha (1x)", "result": 0},
      {"measurement": "Classification and statistics of pesticide damage grade Grade 0", "setting": "topramezone 100 g ai/ha (4x)", "result": 0},
      {"measurement": "Classification and statistics of pesticide damage grade Grade 1", "setting": "topramezone 100 g ai/ha (4x)", "result": 0},
      {"measurement": "Classification and statistics of pesticide damage grade Grade 2", "setting": "topramezone 100 g ai/ha (4x)", "result": 4},
      {"measurement": "Classification and statistics of pesticide damage grade Grade 3", "setting": "topramezone 100 g ai/ha (4x)", "result": 12},
      {"measurement": "Scores", "setting": "topramezone 25 g ai/ha (1x)", "result": 42},
      {"measurement": "Scores", "setting": "topramezone 100 g ai/ha (4x)", "result": 92},
      {"measurement": "Resistance evaluation", "setting": "topramezone 25 g ai/ha (1x)", "result": "poorly resistant (poorly resistant plants (scores 34-67))"},
      {"measurement": "Resistance evaluation", "setting": "topramezone 100 g ai/ha (4x)", "result": "non-resistant (non-resistant plants (scores 68-100))"}
    ]},
    {"molecule": "GsHPPD-02: native Gossypium hirsutum HPPD, SEQ ID NO: 33 (protein, listed as Gossypium hirsutum, GsHPPD Amino Acid Sequence) MVQTNQSGSGNDFKLVGFSNFVRSNPKSDRFTVKRFHHIEFWCTDATNVARRFSWGLGMQFVAKSDLSTGNLTHASYLLRSRDLNFLFTAPYSPSIAVAQNLSPQSTASIPSFDHSLCRSFAATHGLGVRAIAIEVDDAETAFTTSVTHGALPFCPPTPLGDVATIAEVKLYGDVVLRYVSYTTTINSDHDFLPGFEKIEDTLSYPLDYGLRRLDHAVGNVPELGPAVSYVKSFTGFHEFAEFTAEDVGTSESGLNSVVLANNEEMVLLPMNEPVFGTKRKSQIQTYLEHNEGAGVQHLALVSEDIFKTLREMRKRSFVGGFEFMPSPPPTYYKKLKQRAGDILSDEQIKECEELGILVDRDDQGTLLQIFTKPVGDRPTIFIEIIQRIGCMVKDEEGKQYQKGGCGGFGKGNFSELFKSIEEYEKSLEAKQSQNP", "values": [
      {"measurement": "Classification and statistics of pesticide damage grade Grade 0", "setting": "topramezone 25 g ai/ha (1x)", "result": 0},
      {"measurement": "Classification and statistics of pesticide damage grade Grade 1", "setting": "topramezone 25 g ai/ha (1x)", "result": 0},
      {"measurement": "Classification and statistics of pesticide damage grade Grade 2", "setting": "topramezone 25 g ai/ha (1x)", "result": 0},
      {"measurement": "Classification and statistics of pesticide damage grade Grade 3", "setting": "topramezone 25 g ai/ha (1x)", "result": 16},
      {"measurement": "Classification and statistics of pesticide damage grade Grade 0", "setting": "topramezone 100 g ai/ha (4x)", "result": 0},
      {"measurement": "Classification and statistics of pesticide damage grade Grade 1", "setting": "topramezone 100 g ai/ha (4x)", "result": 0},
      {"measurement": "Classification and statistics of pesticide damage grade Grade 2", "setting": "topramezone 100 g ai/ha (4x)", "result": 0},
      {"measurement": "Classification and statistics of pesticide damage grade Grade 3", "setting": "topramezone 100 g ai/ha (4x)", "result": 16},
      {"measurement": "Scores", "setting": "topramezone 25 g ai/ha (1x)", "result": 100},
      {"measurement": "Scores", "setting": "topramezone 100 g ai/ha (4x)", "result": 100},
      {"measurement": "Resistance evaluation", "setting": "topramezone 25 g ai/ha (1x)", "result": "non-resistant (non-resistant plants (scores 68-100))"},
      {"measurement": "Resistance evaluation", "setting": "topramezone 100 g ai/ha (4x)", "result": "non-resistant (non-resistant plants (scores 68-100))"}
    ]},
    {"molecule": "GsHPPDm-F372A-02: Gossypium hirsutum HPPD mutant F372A, SEQ ID NO: 36 (protein, GsHPPDm-F372A Amino Acid Sequence) MVQTNQSGSGNDFKLVGFSNFVRSNPKSDRFTVKRFHHIEFWCTDATNVARRFSWGLGMQFVAKSDLSTGNLTHASYLLRSRDLNFLFTAPYSPSIAVAQNLSPQSTASIPSFDHSLCRSFAATHGLGVRAIAIEVDDAETAFTTSVTHGALPFCPPTPLGDVATIAEVKLYGDVVLRYVSYTTTINSDHDFLPGFEKIEDTLSYPLDYGLRRLDHAVGNVPELGPAVSYVKSFTGFHEFAEFTAEDVGTSESGLNSVVLANNEEMVLLPMNEPVFGTKRKSQIQTYLEHNEGAGVQHLALVSEDIFKTLREMRKRSFVGGFEFMPSPPPTYYKKLKQRAGDILSDEQIKECEELGILVDRDDQGTLLQIATKPVGDRPTIFIEIIQRIGCMVKDEEGKQYQKGGCGGFGKGNFSELFKSIEEYEKSLEAKQSQNP", "values": [
      {"measurement": "Classification and statistics of pesticide damage grade Grade 0", "setting": "topramezone 25 g ai/ha (1x)", "result": 16},
      {"measurement": "Classification and statistics of pesticide damage grade Grade 1", "setting": "topramezone 25 g ai/ha (1x)", "result": 0},
      {"measurement": "Classification and statistics of pesticide damage grade Grade 2", "setting": "topramezone 25 g ai/ha (1x)", "result": 0},
      {"measurement": "Classification and statistics of pesticide damage grade Grade 3", "setting": "topramezone 25 g ai/ha (1x)", "result": 0},
      {"measurement": "Classification and statistics of pesticide damage grade Grade 0", "setting": "topramezone 100 g ai/ha (4x)", "result": 0},
      {"measurement": "Classification and statistics of pesticide damage grade Grade 1", "setting": "topramezone 100 g ai/ha (4x)", "result": 0},
      {"measurement": "Classification and statistics of pesticide damage grade Grade 2", "setting": "topramezone 100 g ai/ha (4x)", "result": 0},
      {"measurement": "Classification and statistics of pesticide damage grade Grade 3", "setting": "topramezone 100 g ai/ha (4x)", "result": 16},
      {"measurement": "Scores", "setting": "topramezone 25 g ai/ha (1x)", "result": 0},
      {"measurement": "Scores", "setting": "topramezone 100 g ai/ha (4x)", "result": 100},
      {"measurement": "Resistance evaluation", "setting": "topramezone 25 g ai/ha (1x)", "result": "highly resistant (highly resistant plants (scores 0-15))"},
      {"measurement": "Resistance evaluation", "setting": "topramezone 100 g ai/ha (4x)", "result": "non-resistant (non-resistant plants (scores 68-100))"}
    ]},
    {"molecule": "GmHPPD-02: native Glycine max HPPD, SEQ ID NO: 75 (protein, Glycine max; GmHPPD Amino Acid Sequence) MPMYTPSLSAPSSNHIQPSVTLPLYITTTKLNLKQQHHTTPMPIPMCNEIQAQAQAQAQPGFKLVGFKNFVRTNPKSDRFQVNRFHHIEFWCTDATNASRRFSWGLGMPIVAKSDLSTGNQIHASYLLRSGDLSFLFSAPYSPSLSAGSSAASSASIPSFDAATCLAFAAKHGFGVRAIALEVADAEAAFSASVAKGAEPASPPVLVDDRTGFAEVRLYGDVVLRYVSYKDAAPQAPHADPSRWFLPGFEAAASSSSFPELDYGIRRLDHAVGNVPELAPAVRYLKGFSGFHEFAEFTAEDVGTSESGLNSVVLANNSETVLLPLNEPVYGTKRKSQIETYLEHNEGAGVQHLALVTHDIFTTLREMRKRSFLGGFEFMPSPPPTYYANLHNRAADVLTVDQIKQCEELGILVDRDDQGTLLQIFTKPVGDRPTIFIEIIQRIGCMVEDEEGKVYQKGACGGFGKGNFSELFKSIEEYEKTLEAKRTA", "values": [
      {"measurement": "Classification and statistics of pesticide damage grade Grade 0", "setting": "topramezone 25 g ai/ha (1x)", "result": 0},
      {"measurement": "Classification and statistics of pesticide damage grade Grade 1", "setting": "topramezone 25 g ai/ha (1x)", "result": 0},
      {"measurement": "Classification and statistics of pesticide damage grade Grade 2", "setting": "topramezone 25 g ai/ha (1x)", "result": 0},
      {"measurement": "Classification and statistics of pesticide damage grade Grade 3", "setting": "topramezone 25 g ai/ha (1x)", "result": 16},
      {"measurement": "Classification and statistics of pesticide damage grade Grade 0", "setting": "topramezone 100 g ai/ha (4x)", "result": 0},
      {"measurement": "Classification and statistics of pesticide damage grade Grade 1", "setting": "topramezone 100 g ai/ha (4x)", "result": 0},
      {"measurement": "Classification and statistics of pesticide damage grade Grade 2", "setting": "topramezone 100 g ai/ha (4x)", "result": 0},
      {"measurement": "Classification and statistics of pesticide damage grade Grade 3", "setting": "topramezone 100 g ai/ha (4x)", "result": 16},
      {"measurement": "Scores", "setting": "topramezone 25 g ai/ha (1x)", "result": 100},
      {"measurement": "Scores", "setting": "topramezone 100 g ai/ha (4x)", "result": 100},
      {"measurement": "Resistance evaluation", "setting": "topramezone 25 g ai/ha (1x)", "result": "non-resistant (non-resistant plants (scores 68-100))"},
      {"measurement": "Resistance evaluation", "setting": "topramezone 100 g ai/ha (4x)", "result": "non-resistant (non-resistant plants (scores 68-100))"}
    ]}
  ]
}
